Test results taken from publication PMC10206189.

What was measured:
VHH14-Fc (huarizo) [1] = test: BLI; Octet RED384, 25 °C, 1× Kinetics buffer; purified VHH-Fc captured on Protein G biosensors, mouse Plexin-B1 in solution (VHH14-Fc: 10-3.75 nM, 1800 s association, 7200 s dissociation; VHH15-Fc: 160-10 nM, 600 s, 510 s); global 1:1 fit
VHH14-Fc (huarizo) [2] = test: BLI; Octet RED384, 25 °C, 1× Kinetics buffer; VHH-Fc-loaded biosensors, mPlexin-B1 wildtype or H34Y P240Q at 400-6.25 nM, 300 s association, 600 s dissociation

VHH14-Fc (huarizo), sequence (heavy, as listed by the source): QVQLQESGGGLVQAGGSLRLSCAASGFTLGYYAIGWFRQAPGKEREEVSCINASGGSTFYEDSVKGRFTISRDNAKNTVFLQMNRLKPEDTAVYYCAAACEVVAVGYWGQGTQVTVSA

Row | Binder | Kd (VHH14-Fc (huarizo) [1]) | Kd (VHH14-Fc (huarizo) [2])
1 | mouse Plexin-B1 (20–535)-6xHis (domain or fragment) LRSPLPAAFTANGTHLQHLARDPTTGTLYVGATNFLFQLSPGLQLEAVVSTGPVNDSRDCLPPVIPDECPQAQPTNNPNQLLLVSPEALVVCGSVHQGICELRSLGQIRQLLLRPERPGDTQYVAANDPAVSTVGLVAQGLVGEPLLFVGRGYTSRGVGGGIPPITTRALRPPDPQAAFSYEETAKLAVGRLSEYSHHFVSAFVRGASAYFLFLRRDLKAPSRAFRAYVSRVCLQDQHYYSYVELPLACQGGRYGLIQAAAVATSKEVARGDVLFAAFSSVAPPTVDWPLSASTGASGTSVLCAFPLDEVDQLANYTRDACYTREGRAENGTKVADIAYDVLSDCAQLPVDTPDAFPCGSDHTPSPMVSCVPLEATPILELPGVQLTAVAVTMEDGHTIAFLGDSQGQLHRVYLGPGRSAAPYSKQSIQPGSPVNRDLTFDGTFEHLYVATQTTLVKVPVAPCAQHLDCDSCLAHRDPYCGWCVLLGRCSRRSECSRDQGPEQWLWSFQPELGCLR | 0.237 nM | 3.13 nM
2 | mPlexin-B1 (20–535) H34Y P240Q (domain or fragment) LRSPLPAAFTANGTYLQHLARDPTTGTLYVGATNFLFQLSPGLQLEAVVSTGPVNDSRDCLPPVIPDECPQAQPTNNPNQLLLVSPEALVVCGSVHQGICELRSLGQIRQLLLRPERPGDTQYVAANDPAVSTVGLVAQGLVGEPLLFVGRGYTSRGVGGGIPPITTRALRPPDPQAAFSYEETAKLAVGRLSEYSHHFVSAFVRGASAYFLFLRRDLKAQSRAFRAYVSRVCLQDQHYYSYVELPLACQGGRYGLIQAAAVATSKEVARGDVLFAAFSSVAPPTVDWPLSASTGASGTSVLCAFPLDEVDQLANYTRDACYTREGRAENGTKVADIAYDVLSDCAQLPVDTPDAFPCGSDHTPSPMVSCVPLEATPILELPGVQLTAVAVTMEDGHTIAFLGDSQGQLHRVYLGPGRSAAPYSKQSIQPGSPVNRDLTFDGTFEHLYVATQTTLVKVPVAPCAQHLDCDSCLAHRDPYCGWCVLLGRCSRRSECSRDQGPEQWLWSFQPELGCLR | – | 255 nM
